Laboratory results as given in publication PMC7048138.

Biological target: microtubules of Xenopus S3 cells stably expressing EGFP-α-tubulin (Xenopus laevis (endogenous in S3 cells); cDNA of the EGFP-tagged copy not stated | Xenopus laevis (endogenous in S3 cells))
Assay: fluorescence molecule counting on microtubules in cells

B1: mCherryFP-TgDCX (full-length wild-type TgDCX, mCherryFP at the N-terminus) (natural protein)
chain: MACGIPWKLARRDELMATRQAERPGEYFPPPYPPCPPTVVTPLRTSAYDFPEATFVTRPCLPAKKATGHKNVFERLTDTAYYTGSHRERFDEFGNGRGIAGREYLYAYDGLTESPSRCHEVYSSVIKRPRKPVVTPGTLGIQRFGVQIPAPRLMWLYRNGDKHDDGTPFFVRPYIKSMESLYQQITKEITPIAGPVRRIFDQNFRVITDLDDIVDGAKYLCTSGEPPAAYDRLEKFLSEWVIQKSQTKVPSQFFVV
B1 gave a DCX molecules per micron (short, smoothly curved microtubule arcs) (molecules per micron) of 4850, a TgDCX molecules per micron of fiber length ("flexible" microtubules) (molecules per micron) of 1460 and a stoichiometry N (TgDCX molecules per tubulin dimer) of 0.9.
